Assay results reported in the domain aggregation screens of Martell et al. (2025).

Test: soluble fraction after stress (log2 fold change); higher = more stays soluble; pooled small domains, quantitative proteomics
Details: stress: 50 degC
Method in brief: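 Custom libraries of small protein domains were pooled and measured in a high-throughput format, with quantitative proteomics as the read-out. Each library was stressed at 50°C. The value is the log2 fold change in the amount of each protein that stays soluble after stress, used as a measure of aggregation propensity; higher values mean more of the protein stays soluble.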

Row | Sequence | soluble fraction (log2)
1 | HMSSARKVTVRGVRELPGIFMEKAEILDDGVRFFYRGEMEKLIGALQGLPIRDLTITEPDLEEVFLHFY | -1.09
2 | HMSIMNEQIREILNQQVTKTSKIQQLLLLGLTRRQVADLVTNGNYGFVQNVYRNMLDAGIFTP | -0.5
3 | HMTWIAEIELRLMGNGAVTGAKIVKSTDLKDVDAAIYRAALEASPYPAPESGIGGRFTIKLKY | 0.198
4 | HMVTLPLLKRGHTGLPVKALQTLLVLRGMSVDVDGSFGEKTESAVRTFQTAAKILSDGEVGKDTWKALI | -1.43
5 | HMGQGEISVPRLEGLSLRETSELLGLFGLRLEAAGSGIALSQNPPAGARVKAGDVIQVDFGEPGN | 0.0136
6 | HMLKDININVTGLDQISNAKLINNLNLLKMNNLFFLDEKKIKKILNSNNLIEKFFIFKKYPSTLDIKVYKT | -0.0369
7 | HMLILTWNYPYEYPMMMRSFLQEIGISRTFLAHIKSNGELLINGRHEIVLKTLQPGDVLTMVIPPSG | -1.71
8 | HMKSPAQAAALKKLWAAIKQNEQGEVVEVLFHNRKLTDAGLVHLKGLANLQTLNLYDTKITGAGLVHL | 0.0876
9 | HMEGVSNLIVSVTRVKVTVDLSQAKVYLSIFPSEQAAFYLNALQQNRFQLKHDLSQLLKNQLRRIPTLQF | 0.283
10 | HMSHYDILEVDPKASATEIKQSFRKKSLQYHPDRNKSSDAHEYMTKITEAYNILGDKDKRRHYDMELKL | 0.442
11 | HMSVPVNAPMPGTILDIKVKAGAAVKAGDVVMILEAMKMENEISAPQDGTIASIDVRKGDTVNSGDVLYTM | 0.0456
12 | HMDINNTNFSRDVDNLLQNEEFIKWRIFRTKEWEDYWENFRKENPHMEDALQEAISRFNAVK | 0.156
13 | HMKTPAPRETILSLFRQTPDGFVSGERISDELGVSRTAVWKHIRNLRQAGYQIEAIPSRGYQLQQS | -0.359
14 | HMSAPRRGETTAASLNLRAGPATDADILAQLPERTPLRVLQEDGEWLRVETHGNEGFVHRQFVAIPGDEP | 0.218
15 | HMVQVDNELTEFSVQSITRGIDALGEVTIRVTAPDGGVYTGRGADNDIIVSSTKAYLNALNRLLNDK | -0.229
16 | HMQPYTYNPNFLSDYRAYSLGIPLEAYDKLVQFRASGSFVNSMSDFQKITGVSDSLLAVLHSKFRYPK | -0.884
17 | HMSTDIPFNIFSQKWNADEIDSIVVENNKIEGKTKDNKKFSTYAPDELLTSLMENHKNPNVIVEFRAP | 0.277
18 | HMIPKIIDITDLNEEVREVIEEYMKRKRVEKYHIYQDSKGQIFIISGSAIIRYDSKLNNLYYL | -0.405
19 | HMEKRIIMLEELKKQVYEANMELPRRGLITYTWGNVSGIDRESGNFVIKPSGVDYDKLKPEDMVVMDL | -0.0887
20 | HMGRPWRIGDVVNVSRPTGDGGGFTKGLITRIYPTTVQVTWNPDLQHARPWTTMEKKQYLIFVYHDDE | -2.86
21 | HMEDISQHAVKKLVQEMVMAEDPRDPLSDQQIAENLSRLGLKVARRTVAKYRAMLGIQPSNRRRK | -0.0553
22 | HMEAPWQEIKRQVMDGLDMSREFTDEELRERIALAVRSYSKEKLLSLKVRESYEEQIFNSFR | -0.239
23 | HMSIYQYFNISEINSIDDLKKQYFKLAKKYHPDAGGDKVSFQELQNEYEQLTKKILSGAELNADELKTE | -0.109
24 | HMPNLAAAIGARVTIRLREASGGFRDIVGTLQRFGDGVNELLNSKGQIISFSEDEIAIWREIK | -0.816
25 | HMHAQDTLMTRAGETRTVKILEIGLEEIKYRIWGLDDSPVIVIDKIDVKQIVFSNGEKMTIVQ | -1.44
26 | HMNREEKKALTRRQIIDVATRLFRQHGIHNTDLKTIATEAGVSVVTFYKYFDSKEALIGTIAAEQ | -0.281
27 | HMTIKTAFPAEDLAKPDNFKSLLYYFGLLTIRGTKWGSTLLAIPNLTVREQLYSYLVEAYRSADL | 0.291
28 | HMRPAAELGLPHAPKHFIQYLTEDDRPQVLKDVDYEGGMGVSIGRLREDSIFDWKFVGLAHNTL | 0.062

Row | Sequence | soluble fraction (log2)
29 | HMEGNWGLWAKVPNRFAALTTDKDSALRRFKSKEDGEAWMASHGLKPERFDVLEIPADYKPA | 0.0433
30 | HMDEEEKGEVEVPNLIGLTRKEAKKTLEEEGLLIETKESLKTNLDDEYEKIKSQLPKAGIKIKQGSTVYVD | 0.0917
31 | HMGSVVATLRKLIIDGHYPAGTRLAEIPVANALGVSRTPVRLAFRTLQQEGLLQTVGKRGIVVRAF | -1.21
32 | HMGKSDEIFIQKSALYEELGQPDRALEMIYSALKSDSLNIDVLHRLVTLLINQNKNEDAILYNQKIID | -0.193
33 | HMQKAEQIGSLLREKRKSMGLTQDELAQQVEVRRQTLADLELGKNVGSHLLIKVMEHLGVGFDLL | -0.192
34 | HMVSEDELLARIALLPYPQAKILLEERLSHDPANAKVRQLYLELAKKSGDHTEVTRHNSLLY | -0.104
35 | HMSTLTGTQRAAVVLMQMSPPNAARVMAQFTDAEAEEIAAEIVRLRKVDPEVAEQIMKDFHEAALSS | -0.252
36 | HMDPTVEENKLNPRDLLIIQRVKEGRTNKEIAEELNVAEITVKKQLSSLYQRYKVHNRNQLLLALD | 0.117
37 | HMKEVKPSDFFLSKLDEDHNLIEKFNALSSFKQKEFIEYIDSAKQEKTKHDRFEKIKPILLSNIGLNDKYR | 0.075
38 | HMGKEYERALQQVTKSEIDSDEKLQQQMDALVNSPRISDKEDAWALLLVKKLRNEGVEWDELPDVLSERVQ | 0.0796
39 | HMQVAPQVERLLRVMGNETLSLSDIMGRMGLSDKKNFRESYLVPALRSAVIEMTIPDKPNSSLQKYRRIHE | -0.176
40 | HMTMPDFGYMRVSYAEARRQLQAIGISVSTIEKVEDPSHTSATGDMVISQYPAAGSKIEGTVTLYVSVAS | -0.779
41 | HMSDLGEIEKIVDEVLAENITKVQEYKDGKKGLMGMFMGQIMKKSGGKADPKIANQLLTEKL | 0.114
42 | HMEFSYLEEIGHEKGDLIKGLQLIQQKEGYVSDDAVRAVAENFGMSPAEVEGVLTFYAQFKR | -0.061
43 | HMQPEKELAPLIGQRVSVRLHDGDGGYRDLLGELESPDSIRKKNGEIAFFDPAKIAALRVVV | 0.0899
44 | HMTPQEQWNNAYLLAKDYYDANGNLDIDEKYKTKDGFELGSWLTTQRNVYKRGKLSPEKTKKLEEIGISF | 0.128
45 | HMTLSDDEFEIIKSLIIDTLKEEALTINALTKKINHKEAKTIQVIRFLLDNGLVAENNLMKLFVI | -0.821
46 | HMTKTRTEILEYLKQNWSVTVSASDIKKHLEEKEIKANTTTIYRYLDKLLAEHVIIKYADAGSERAVYQYS | -2.31
47 | HMVVSDKIAFSSFLKSVEDGRVVEVEITGNDIRGILSDGTVFNTYAPNDPNLVEKLTSKGVNITALPKE | 0.19
48 | HMRSNIYTEEKLWTVLQDFFQENRYLTISLMRMKFGLSRHMAQKWIDHFIAKGLLVKDGTPRSPIYFLND | -2.3
49 | HMIVVLKHGVTEQQMRNLIAWFKDQGVDVHVSRGIYQTVLGLVGDTSDIDVDLLRMLDIVDAVKRIT | -1.76
50 | HMETAADLLAAAKENPARFGILASEGRFGLGYMNDDLLDPDNLVAISREEADDLRGLGVYFHNLD | -0.0842
51 | HMKTRQVTVRNGRIEIFDKRFSTERLVFTAANLPVLEREGEVFTAGIPDSRDFINLWARDGSFAGSVPRV | -1.06
52 | HMAPEQWYVLTSGQLPKGPYRLRHIVAMSKGDNWLVARKGAEQWTPLRHLPEFRQAQEANEYIQAIS | -0.968
53 | HMGVLGVDALAAAAEVSVDTVRYYQHLGLLEPPRREGRRAVYGPSHLARMGEIRRLAAAGFTLDQIRQLAE | -2.1
54 | HMNGQITPSRAKEIALGHAGVSEGSANFKKIKLDNKNGRPAYEIEFIANNSRYEFEINASNGSIIKFNK | 0.345
55 | HMAVGTASNLIGKDIEAYAPIDGSQSSDDTKTISGKVESVHIKDGVVYMNVKDSQSENIIEVEYGALIKVN | -0.498
